Data reported in paper PMC7785020, “A unique hormonal recognition feature of the human glucagon-like peptide-2 receptor” (Cell Research, 2020).

Legend:
GLP-2R W340^5.36A = biological target: T1, GLP-2R W340^5.36A (Homo sapiens, UniProt O95838, W340A); experiment: cAMP accumulation, W340^5.36A; format: cell-based; design: WT (1–553); expressed in transfected cells; HEK 293T (cAMP); details: Table S3, W340A; HEK 293T, 30 min, RT; mean ± SEM, n ≥ 3 in duplicate; read-out: cAMP Emax (% WT)
T1 sequence (O95838 1-553 W340A): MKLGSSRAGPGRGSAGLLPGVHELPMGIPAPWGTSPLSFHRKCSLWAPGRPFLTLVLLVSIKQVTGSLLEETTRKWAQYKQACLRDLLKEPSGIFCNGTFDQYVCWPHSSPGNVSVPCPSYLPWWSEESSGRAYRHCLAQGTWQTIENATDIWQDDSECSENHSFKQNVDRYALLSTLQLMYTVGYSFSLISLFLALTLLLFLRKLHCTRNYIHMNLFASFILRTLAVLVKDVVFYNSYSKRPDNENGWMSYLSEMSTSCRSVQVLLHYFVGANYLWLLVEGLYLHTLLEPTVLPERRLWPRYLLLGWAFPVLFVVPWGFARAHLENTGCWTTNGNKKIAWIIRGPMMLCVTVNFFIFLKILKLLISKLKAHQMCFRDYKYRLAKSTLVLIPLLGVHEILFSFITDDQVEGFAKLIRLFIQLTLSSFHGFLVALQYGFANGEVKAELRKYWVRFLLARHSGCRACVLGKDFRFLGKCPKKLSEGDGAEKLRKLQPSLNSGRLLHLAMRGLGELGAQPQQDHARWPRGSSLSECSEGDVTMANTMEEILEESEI
Experimental: HEK 293T cells were cultured in Dulbecco’s Modified Eagle’s Medium (DMEM) (Gibco, Waltham, USA) supplemented with 10% (v/v) fetal bovine serum (FBS) (Gibco) and 1% (v/v) sodium pyruvate (Gibco) at 37 °C, 5% CO2 in a humidified incubator. They were seeded onto 6-well cell culture plates and transiently transfected with different GLP-2R constructs using Lipofectamine 2000 transfection reagent (Invitrogen, Carlsbad, CA, USA). After 24 h, the transfected cells were seeded onto 384-well microtiter plates (3000 cells per well) in HBSS supplemented with 5 mM HEPES, 0.1% (w/v) bovine serum albumin (BSA) and 0.5 mM 3-isobutyl-1- methylxanthine, and stimulated with increasing concentrations of GLP-2 for 30 min at RT. Eu and Ulight were diluted by cAMP detection buffer and added to the plates separately to terminate the reaction. Plates were incubated at RT for 60 min before measuring the fluorescence intensity at 620 nm and […] by an EnVision multilabel plate reader (PerkinElmer, Boston, USA).

[1] = biological target: GLP-2R D244^ECL1A (human) (UniProt O95838); experiment: radioligand binding; competition on transiently transfected COS-7 cells: unlabeled GLP-2(1–33) 0.1 nM to 1 μM against 10–15 pM [125I]GLP-2(1–33, M10Y); 4 h, 4 °C; 50 mM HEPES pH 7.4, 1 mM CaCl2, 5 mM MgCl2, 0.5% BSA; three-parameter logistic fit
GLP-2R ECL1 (GLP-1R) = GLP-2R ECL1 (GLP-1R) (UniProt O95838); experiment: as above
[2] = biological target: GLP-2R K414^7.35 A (human) (UniProt O95838); experiment: as above
[3] = biological target: GLP-2R N247^ECL1A (human) (UniProt O95838); experiment: as above
[4] = biological target: GLP-2R N334^ECL2 A (human) (UniProt O95838); experiment: as above
[5] = biological target: GLP-2R R242^ECL1A (human) (UniProt O95838); experiment: as above
[6] = biological target: GLP-2R W340^5.36A (human) (UniProt O95838); experiment: as above
[7] = biological target: GLP-2R Y182^1.43A (human) (UniProt O95838); experiment: as above
[8] = biological target: Human GLP-2R WT (1–553) (human) (UniProt O95838); experiment: as above

Chain of GLP-2R R242^ECL1A (human) (O95838 whole entry R242A): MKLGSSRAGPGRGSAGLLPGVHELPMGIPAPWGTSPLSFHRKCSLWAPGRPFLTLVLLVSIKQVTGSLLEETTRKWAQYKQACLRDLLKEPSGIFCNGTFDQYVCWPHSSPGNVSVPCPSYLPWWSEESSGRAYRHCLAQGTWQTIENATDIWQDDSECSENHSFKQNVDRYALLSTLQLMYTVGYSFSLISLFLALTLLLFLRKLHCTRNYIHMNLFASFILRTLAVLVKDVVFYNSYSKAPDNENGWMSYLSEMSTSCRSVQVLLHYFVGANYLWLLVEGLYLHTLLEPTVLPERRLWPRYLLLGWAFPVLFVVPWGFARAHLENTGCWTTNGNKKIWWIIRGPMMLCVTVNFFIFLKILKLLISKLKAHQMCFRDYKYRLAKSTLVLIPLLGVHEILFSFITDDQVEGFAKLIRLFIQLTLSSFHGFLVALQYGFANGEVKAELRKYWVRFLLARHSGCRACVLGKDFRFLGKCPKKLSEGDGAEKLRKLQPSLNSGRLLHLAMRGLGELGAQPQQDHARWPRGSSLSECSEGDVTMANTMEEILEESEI
Chain of GLP-2R ECL1 (GLP-1R) (O95838 whole entry): as the sequence (O95838 whole entry R242A) above, with A242R counted along it
Chain of GLP-2R N334^ECL2 A (human) (O95838 whole entry N334A): as the sequence (O95838 whole entry R242A) above, with A242R, N334A counted along it
Chain of GLP-2R D244^ECL1A (human) (O95838 whole entry D244A): as the sequence (O95838 whole entry R242A) above, with A242R, D244A counted along it
Chain of GLP-2R K414^7.35 A (human) (O95838 whole entry K414A): as the sequence (O95838 whole entry R242A) above, with A242R, K414A counted along it
Chain of GLP-2R Y182^1.43A (human) (O95838 whole entry Y182A): as the sequence (O95838 whole entry R242A) above, with Y182A, A242R counted along it

Compound: CC[C@H](C)[C@H](NC(=O)[C@H](Cc1ccccc1)NC(=O)[C@H](CC(=O)O)NC(=O)[C@H](CCCNC(=N)N)NC(=O)[C@H](C)NC(=O)[C@H](C)NC(=O)[C@H](CC(C)C)NC(=O)[C@H](CC(N)=O)NC(=O)[C@H](CC(=O)O)NC(=O)[C@H](CC(C)C)NC(=O)[C@@H](NC(=O)[C@@H](NC(=O)[C@H](CC(N)=O)NC(=O)[C@H](CCSC)NC(=O)[C@H](CCC(=O)O)NC(=O)[C@H](CC(=O)O)NC(=O)[C@H](CO)NC(=O)[C@H](Cc1ccccc1)NC(=O)[C@H](CO)NC(=O)CNC(=O)[C@H](CC(=O)O)NC(=O)[C@H](C)NC(=O)[C@@H](N)Cc1c[nH]cn1)[C@@H](C)O)[C@@H](C)CC)C(=O)N[C@@H](CC(N)=O)C(=O)N[C@@H](Cc1c[nH]c2ccccc12)C(=O)N[C@@H](CC(C)C)C(=O)N[C@H](C(=O)N[C@@H](CCC(N)=O)C(=O)N[C@H](C(=O)N[C@@H](CCCCN)C(=O)N[C@H](C(=O)N[C@H](C(=O)N[C@@H](CC(=O)O)C(=O)O)[C@@H](C)O)[C@@H](C)CC)[C@@H](C)O)[C@@H](C)CC [Human GLP-2 (1–33)]
- Emax (GLP-2R W340^5.36A): 107 ± 3.6%

Compound: [^125I]GLP-2(1–33, M10Y) (peptide)
- % Binding of WT [1]: 69.1%
- % Binding of WT (GLP-2R ECL1 (GLP-1R)): 3.4%
- % Binding of WT [2]: 15.2%
- % Binding of WT [3]: 131%
- % Binding of WT [4]: 2.4%
- % Binding of WT [5]: 4.2%
- % Binding of WT [6]: 7.3%
- % Binding of WT [7]: 3.4%
- % Binding of WT [8]: 99.2%
